# Measurements from publication PMC11055865.
# Target: MCM8-9 complex (FLAG-tagged MCM8 and MBP-tagged MCM9), wild type (human) (UniProt Q9UJA3)
# Experiment: mass photometry; MCM8-9 preincubated with HROB (both 1 μM) 10 min at room temperature in 25 mM Tris-HCl pH 7.5, 3 mM EDTA, 50 mM NaCl, then rapidly diluted to 200 nM; complex largely fell apart upon dilution
# MCM8-9 complex (FLAG-tagged MCM8 and MBP-tagged MCM9), wild type (human), sequence (Q9UJA3 whole entry, chain 1 of 2): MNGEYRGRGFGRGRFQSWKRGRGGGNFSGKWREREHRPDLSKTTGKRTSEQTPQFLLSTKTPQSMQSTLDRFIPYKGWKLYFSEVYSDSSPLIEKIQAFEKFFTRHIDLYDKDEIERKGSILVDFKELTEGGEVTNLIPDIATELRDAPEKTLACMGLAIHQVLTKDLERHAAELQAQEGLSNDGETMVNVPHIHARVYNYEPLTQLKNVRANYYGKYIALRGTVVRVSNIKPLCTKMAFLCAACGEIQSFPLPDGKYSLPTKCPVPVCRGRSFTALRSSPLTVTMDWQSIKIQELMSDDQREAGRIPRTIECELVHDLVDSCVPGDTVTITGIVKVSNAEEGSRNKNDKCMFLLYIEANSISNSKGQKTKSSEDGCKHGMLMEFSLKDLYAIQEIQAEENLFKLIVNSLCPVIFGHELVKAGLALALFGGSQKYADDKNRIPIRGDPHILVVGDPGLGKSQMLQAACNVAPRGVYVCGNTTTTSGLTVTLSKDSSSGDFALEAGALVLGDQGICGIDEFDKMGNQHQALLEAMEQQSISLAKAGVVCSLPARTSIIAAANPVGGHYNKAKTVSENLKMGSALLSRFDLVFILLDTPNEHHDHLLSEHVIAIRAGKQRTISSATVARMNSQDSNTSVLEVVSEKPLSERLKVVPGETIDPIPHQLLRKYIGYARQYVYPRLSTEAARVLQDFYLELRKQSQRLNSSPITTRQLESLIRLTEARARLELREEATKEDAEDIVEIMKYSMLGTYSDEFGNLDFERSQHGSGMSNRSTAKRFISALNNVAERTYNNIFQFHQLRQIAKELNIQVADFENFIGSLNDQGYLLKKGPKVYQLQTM
# MCM8-9 complex (FLAG-tagged MCM8 and MBP-tagged MCM9), wild type (human), sequence (Q9NXL9 whole entry, chain 2 of 2, further chain): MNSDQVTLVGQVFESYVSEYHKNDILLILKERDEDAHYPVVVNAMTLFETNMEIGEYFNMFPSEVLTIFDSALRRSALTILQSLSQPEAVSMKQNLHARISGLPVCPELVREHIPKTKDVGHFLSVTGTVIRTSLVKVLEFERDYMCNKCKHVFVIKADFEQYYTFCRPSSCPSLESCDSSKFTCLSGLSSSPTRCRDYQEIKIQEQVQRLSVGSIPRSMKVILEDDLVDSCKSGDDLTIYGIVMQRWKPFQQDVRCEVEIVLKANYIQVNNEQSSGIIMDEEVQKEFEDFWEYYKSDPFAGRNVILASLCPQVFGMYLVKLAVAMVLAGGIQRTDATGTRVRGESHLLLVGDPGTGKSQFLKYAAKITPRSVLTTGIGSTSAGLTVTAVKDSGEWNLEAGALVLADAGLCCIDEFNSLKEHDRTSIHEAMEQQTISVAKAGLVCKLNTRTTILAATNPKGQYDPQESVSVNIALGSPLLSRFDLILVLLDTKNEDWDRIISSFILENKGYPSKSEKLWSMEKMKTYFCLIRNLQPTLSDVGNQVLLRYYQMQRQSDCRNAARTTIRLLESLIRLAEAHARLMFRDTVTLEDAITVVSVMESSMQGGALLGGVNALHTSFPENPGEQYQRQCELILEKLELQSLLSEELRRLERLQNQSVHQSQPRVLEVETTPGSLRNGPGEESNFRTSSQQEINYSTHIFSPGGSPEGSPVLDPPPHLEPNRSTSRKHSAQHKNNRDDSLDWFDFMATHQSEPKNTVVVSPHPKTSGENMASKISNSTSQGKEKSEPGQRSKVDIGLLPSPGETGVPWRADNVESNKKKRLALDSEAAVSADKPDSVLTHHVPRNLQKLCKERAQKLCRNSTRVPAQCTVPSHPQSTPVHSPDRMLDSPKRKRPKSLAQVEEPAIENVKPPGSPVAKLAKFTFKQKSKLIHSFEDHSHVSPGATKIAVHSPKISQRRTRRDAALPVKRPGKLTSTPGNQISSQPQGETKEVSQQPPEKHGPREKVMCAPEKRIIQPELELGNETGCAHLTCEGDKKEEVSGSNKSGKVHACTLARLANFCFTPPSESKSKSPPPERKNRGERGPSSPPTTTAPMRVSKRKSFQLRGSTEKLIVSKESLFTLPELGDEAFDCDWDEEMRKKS
substance,measurement,value
"HROB-FLAG (wild type HROB, homologous recombination factor with OB-fold) (from UniProt Q8N3J3-4 1-646) (natural protein)",stoichiometry N (HROB per MCM8-9 heterodimer),1
